In publication PMC11811016 (Nature Communications, 2025) one finds Kd data, which are given here for 1 molecule.

The target of this assay is T1, recombinant his-PGC-1α (mouse, UniProt O70343 1-797, labeled with red-tris-NTA 2nd generation His-tag labeling kit).
T1 sequence (looked up): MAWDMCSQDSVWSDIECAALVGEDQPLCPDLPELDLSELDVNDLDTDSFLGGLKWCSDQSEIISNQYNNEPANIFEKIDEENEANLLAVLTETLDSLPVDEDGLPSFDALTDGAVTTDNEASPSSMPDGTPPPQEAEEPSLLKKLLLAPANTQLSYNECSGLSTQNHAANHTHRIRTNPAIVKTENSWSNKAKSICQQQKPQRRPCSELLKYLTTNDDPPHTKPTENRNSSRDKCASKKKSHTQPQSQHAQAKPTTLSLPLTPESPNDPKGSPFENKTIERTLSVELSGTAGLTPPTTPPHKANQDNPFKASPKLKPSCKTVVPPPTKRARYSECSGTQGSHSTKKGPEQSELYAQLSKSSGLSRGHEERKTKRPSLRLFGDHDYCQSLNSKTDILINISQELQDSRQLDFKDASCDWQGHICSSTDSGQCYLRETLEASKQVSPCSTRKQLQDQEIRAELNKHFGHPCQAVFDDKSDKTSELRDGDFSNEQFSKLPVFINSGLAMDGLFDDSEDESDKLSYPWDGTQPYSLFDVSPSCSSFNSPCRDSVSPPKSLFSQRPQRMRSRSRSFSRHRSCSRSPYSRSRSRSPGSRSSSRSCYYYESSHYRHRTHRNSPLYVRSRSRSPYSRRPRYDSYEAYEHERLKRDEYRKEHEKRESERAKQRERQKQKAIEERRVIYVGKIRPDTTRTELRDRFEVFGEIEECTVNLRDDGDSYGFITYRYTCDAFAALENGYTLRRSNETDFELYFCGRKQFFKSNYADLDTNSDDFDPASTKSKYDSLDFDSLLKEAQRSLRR
The experiment in a line: MST.

Usually Kd stands for the constant that tells how readily two partners part at equilibrium.

B1: purified KMT5C protein (his tag cleaved) (enzyme)
chain: not shown
Turning to B1, the dissociation constant (Kd) came out at 1730 nM.
